Drawing on patent US20250179215A1, “PLASMIN-BINDING VHHS” (RHEINISCHE FRIEDRICH-WILHELMS-UNIVERSITÄT BONN, priority 2022, published 2025), this text covers residual plasmin activity for one molecule.

This assay concerns the target T1, plasmin (Homo sapiens, UniProt P00747).
T1 construct: human Lys-plasmin which is prepared from homogeneous Glu-plasminogen using uPA; purchased Haematologic Technologies, Inc. (Essex Junction, VT)
Briefly: Plasmin inhibition assay (α2-AP-mediated plasmin inactivation). It counts as biochemical. The conditions noted are these: α2AP alone, molar excess of α2AP over plasmin. The method, then: FIG. 7. Impact of VHHs binding on α2-AP-mediated plasmin inactivation. […] After 30 min of incubation, the residual activity of plasmin was measured by addition of 50 μl of the sample to 50 μl of a plasmin-specific fluorogenic substrate (400 μM). The plasmin activity in the wells in the absence of VHHs and α2AP was considered as 100% activity and relative residual plasmin activities calculated accordingly. The data are presented as mean±SD of three independent measurements.
After incubation for 30 min at 37° C., 50 μl of the mixture were transferred to the wells of black F16 Fluoronunc modules and 50 μl of plasmin-specific fluorogenic substrate (800 μM) were added and substrate hydrolysis measured at λex of 360 nm and λem of 460 nm. The plasmin activity in the reactions containing all reagents except α2-AP was set as 100%.

T1 sequence (P00747 97-580 limits assumed): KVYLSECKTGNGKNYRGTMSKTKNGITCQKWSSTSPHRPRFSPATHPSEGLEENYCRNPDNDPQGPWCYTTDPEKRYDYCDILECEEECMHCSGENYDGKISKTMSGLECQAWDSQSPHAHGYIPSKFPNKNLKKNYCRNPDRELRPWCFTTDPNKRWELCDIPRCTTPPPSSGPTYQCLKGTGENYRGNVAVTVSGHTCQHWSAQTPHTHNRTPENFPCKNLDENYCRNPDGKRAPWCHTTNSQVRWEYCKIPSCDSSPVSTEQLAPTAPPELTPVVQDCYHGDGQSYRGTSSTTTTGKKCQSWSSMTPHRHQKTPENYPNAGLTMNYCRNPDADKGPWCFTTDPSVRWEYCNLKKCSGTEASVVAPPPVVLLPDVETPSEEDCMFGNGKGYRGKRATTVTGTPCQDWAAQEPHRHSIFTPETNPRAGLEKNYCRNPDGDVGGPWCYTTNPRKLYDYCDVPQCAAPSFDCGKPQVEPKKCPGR
T1 sequence (P00747 581-810 limits assumed): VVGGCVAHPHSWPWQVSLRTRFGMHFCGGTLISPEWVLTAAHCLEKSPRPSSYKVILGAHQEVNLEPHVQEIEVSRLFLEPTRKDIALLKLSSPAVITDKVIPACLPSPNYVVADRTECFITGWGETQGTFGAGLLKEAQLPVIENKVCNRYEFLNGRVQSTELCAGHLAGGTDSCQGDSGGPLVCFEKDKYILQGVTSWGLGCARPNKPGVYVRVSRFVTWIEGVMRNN

B1: alpha2-antiplasmin (protein)
chain: NQEQVSPLTLLKLGNQEPGGQTALKSPPGVCSRDPTPEQTHRLARAMMAFTADLFSLVAQTSTCPNLILSPLSVALALSHLALGAQNHTLQRLQQVLHAGSGPCLPHLLSRLCQDLGPGAFRLAARMYLQKGFPIKEDFLEQSEQLFGAKPVSLTGKQEDDLANINQWVKEATEGKIQEFLSGLPEDTVLLLLNAIHFQGFWRNKFDPSLTQRDSFHLDEQFTVPVEMMQARTYPLRWFLLEQPEIQVAHFPFKNNMSFVVLVPTHFEWNVSQVLANLSWDTLHPPLVWERPTKVRLPKLYLKHQMDLVATLSQLGLQELFQAPDLRGISEQSLVVSGVQHQSTLELSEVGVEAAAATSIAMSRMSLSSFSVNRPFLFFIFEDTTGLPLFVGSVRNPNPSAPRELKEQQDSPGNKDFLQSLKGFPRGDKLFGPDLKLVPPMEEDYPQFGSPK
Molecule B1 showed a residual plasmin activity of under 0.1%.
